In paper PMC2713385 (Journal of molecular biology, 2009):

Assays:
[1] = target: bacteriophage HK620 gp26-like tail needle (bacteriophage HK620); experiment: SDS-PAGE
[2] = target: bacteriophage HK620 gp26-like tail needle (bacteriophage HK620); experiment: AUC
[3] = target: bacteriophage Sf6 gp26-like tail needle (bacteriophage Sf6); experiment: SDS-PAGE
[4] = target: bacteriophage Sf6 gp26-like tail needle (bacteriophage Sf6); experiment: AUC
[5] = target: phage HS1 gp26-like tail needle (prophage HS1 of E. coli strain HS); experiment: SDS-PAGE
[6] = target: phage HS1 gp26-like tail needle (prophage HS1 of E. coli strain HS); experiment: AUC
AUC = target: the molecule itself; experiment: AUC

Molecule: bacteriophage HK620 gp26-like tail needle (natural protein)
- stoichiometry N [1]: 3
- stoichiometry N [2]: 3

Molecule: bacteriophage Sf6 gp26-like tail needle (natural protein)
- stoichiometry N [3]: 3
- stoichiometry N [4]: 3

Molecule: phage HS1 gp26-like tail needle (natural protein)
- stoichiometry N [5]: 3
- stoichiometry N [6]: 3

B1: bacteriophage P22 tail needle gp26 (natural protein, UniProt P35837 1-233, looked up)
chain: MADPSLNNPVVIQATRLDASILPRNVFSKSYLLYVIAQGTDVGAIAGKANEAGQGAYDAQVKNDEQDVELADHEARIKQLRIDVDDHESRITANTKAITALNVRVTTAEGEIASLQTNVSALDGRVTTAENNISALQADYVSKTATTSQSLASPLNVTTSYSVGGKKVLGARQTGWTAATGTANKGVFDADLTFAVSDTYTQSEIQAIANALITERRRTKALEDALRAHGLID
- stoichiometry N (AUC): 3
